Substitutions are numbered along the chain they refer to. Names and notes keep the numbering of the source.
T1: cynomolgus PD-1-His (cynomolgus monkey)
T1 chain: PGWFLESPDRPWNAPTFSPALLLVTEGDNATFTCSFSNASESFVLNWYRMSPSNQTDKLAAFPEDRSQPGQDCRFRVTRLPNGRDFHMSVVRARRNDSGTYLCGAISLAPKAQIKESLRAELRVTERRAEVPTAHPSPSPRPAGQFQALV

B1: mAb C[PD1]_H1.177_L1.140 (bivalent IgG1) (antibody, V domains shown)
VH: EVQLVESGGGLVQPGGSLRLSCAASGFTFSSLGMHWVRQAPGKGLEWVSYISGGSSIIYYADSVKGRFTISRDNAKNSLYLQMNSLRAEDTAVYYCARGGRLVFSPDYWGQGTLVTVSS
VL: DIVMTQSPDSLAVSLGERATINCKSSQSLLHSGNQYNYLTWYQQKPGQPPKLLIYWASTRESGVPDRFTGSGSGTDFTLTISSLQAEDVAVYYCQNDYTYPFTFGSGTKLEIKR
notes: Bivalent IgG1 format with E233P/L234V/L235A/G236_/S267K; copies: 2 + 2
B2: H1.215_L1.1 (XENP32831) (antibody, human IgG1, kappa, V domains shown)
VH: B1 VH with L32F, G53S, G100A
VL: B1 VL with Y36K, T99S
notes: VH substitution G108A/W112F (Xencor #); G96A/W100F (Kabat); also called mAb C[PD1]_H1.215_L1.1_IgG1_PVA_/S267K
B3: H1.224_L1.1 (XENP32840) (antibody, human IgG1, kappa, V domains shown)
VH: B1 VH with L32F, G53S, L102R, V103L
VL: B1 VL with Y36K, T99S
notes: VH substitution L110R/V111L/W112F (Xencor #); L98R/V99L/W100F (Kabat); also called mAb C[PD1]_H1.224_L1.1_IgG1_PVA_/S267K
B4: H1.213_L1.1 (XENP32829) (antibody, human IgG1, kappa, V domains shown)
VH: B1 VH with L32F, G53S, L102S, V103I
VL: B1 VL with Y36K, T99S
notes: VH substitution L110S/V111I/W112F (Xencor #); L98S/V99I/W100F (Kabat); also called mAb C[PD1]_H1.213_L1.1_IgG1_PVA_/S267K
B5: H1.219_L1.1 (XENP32835) (antibody, human IgG1, kappa, V domains shown)
VH: B1 VH with L32F, G53S, R101S, V103Y, F104L
VL: B1 VL with Y36K, T99S
notes: VH substitution R109S/V111Y/W112L (Xencor #) but R97S/V99Y/W100F in the Kabat column: the two columns disagree; also called mAb C[PD1]_H1.219_L1.1_IgG1_PVA_/S267K
B6: H1.218_L1.1 (XENP32834) (antibody, human IgG1, kappa, V domains shown)
VH: B1 VH with L32F, G53S, L102Q, S105T
VL: B1 VL with Y36K, T99S
notes: VH substitution L110Q/W112F/S113T (Xencor #); L98Q/W100F/S100aT (Kabat); also called mAb C[PD1]_H1.218_L1.1_IgG1_PVA_/S267K
B7: H1.223_L1.1 (XENP32839) (antibody, human IgG1, kappa, V domains shown)
VH: B1 VH with L32F, G53S, R101H, L102Q
VL: B1 VL with Y36K, T99S
notes: VH substitution R109H/L110Q/W112F (Xencor #); R97H/L98Q/W100F (Kabat); also called mAb C[PD1]_H1.223_L1.1_IgG1_PVA_/S267K
B8: H1.216_L1.1 (XENP32832) (antibody, human IgG1, kappa, V domains shown)
VH: B1 VH with L32F, G53S, R101S, L102V, V103L
VL: B1 VL with Y36K, T99S
notes: VH substitution R109S/L110V/V111L/W112F (Xencor #); R97S/L98V/V99L/W100F (Kabat); also called mAb C[PD1]_H1.216_L1.1_IgG1_PVA_/S267K
B9: H1.221_L1.1 (XENP32837) (antibody, human IgG1, kappa, V domains shown)
VH: B1 VH with L32F, G53S, L102R
VL: B1 VL with Y36K, T99S
notes: VH substitution L110R/W112F (Xencor #); L98R/W100F (Kabat); also called mAb C[PD1]_H1.221_L1.1_IgG1_PVA_/S267K
B10: H1.220_L1.1 (XENP32836) (antibody, human IgG1, kappa, V domains shown)
VH: B1 VH with L32F, G53S, V103Y
VL: B1 VL with Y36K, T99S
notes: VH substitution V111Y/W112F (Xencor #); V99Y/W100F (Kabat); also called mAb C[PD1]_H1.220_L1.1_IgG1_PVA_/S267K
B11: H1.217_L1.1 (XENP32833) (antibody, human IgG1, kappa, V domains shown)
VH: B1 VH with L32F, G53S, V103S
VL: B1 VL with Y36K, T99S
notes: VH substitution V111S/W112F (Xencor #); V99S/W100F (Kabat); also called mAb C[PD1]_H1.217_L1.1_IgG1_PVA_/S267K
B12: H1.214_L1.1 (XENP32830) (antibody, human IgG1, kappa, V domains shown)
VH: B1 VH with L32F, G53S, R101L, V103I, F104L
VL: B1 VL with Y36K, T99S
notes: VH substitution R109L/V111I/W112L (Xencor #) but R97L/V99I/W100F in the Kabat column: the two columns disagree; also called mAb C[PD1]_H1.214_L1.1_IgG1_PVA_/S267K
B13: H1.222_L1.1 (XENP32838) (antibody, human IgG1, kappa, V domains shown)
VH: B1 VH with L32F, G53S, F104L, P106S
VL: B1 VL with Y36K, T99S
notes: VH substitution W112L/P114S (Xencor #) but W100F/P100bS in Kabat; also called mAb C[PD1]_H1.222_L1.1_IgG1_PVA_/S267K
B14: XENP28537 (humanized variant of mAb C, bivalent human IgG1) (antibody, V domains shown)
VH: B1 VH with L32F, G53S, F104W
VL: DIVMTQSPLSLPVTPGEPASISCRSSQSLLNSGNQKNYLTWYLQKPGQPPQLLIYWASTRESGVPDRFTGSGSGTDFTLKISRVEAEDVGVYYCQNDYSYPFTFGSGTKLEIKR
notes: Human IgG1 with E233P/L234V/L235A/G236del/S267K
B15: XENP28536 (mAb C[PD-1]_H1L1, bivalent human IgG1) (antibody, V domains shown)
VH: B1 VH with L32F, G53S, F104W
VL: DIVMTQSPDSLAVSLGERATINCKSSQSLLNSGNQKNYLTWYQQKPGQPPKLLIYWASTRESGVPDRFTGSGSGTDFTLTISSLQAEDVAVYYCQNDYSYPFTFGSGTKLEIK
notes: Bivalent human IgG1 with E233P/L234V/L235A/G236del/S267K

biological target: T2, human PD-1-His (human, UniProt Q15116 25-167, limits assumed); assay: Octet (BLI), bivalent IgG1 mAb; legend calls the constant apparent (KDapp)
T2 construct: Antigen of the Octet assays; not shown: His tag
T2 sequence (Q15116 25-167 limits assumed): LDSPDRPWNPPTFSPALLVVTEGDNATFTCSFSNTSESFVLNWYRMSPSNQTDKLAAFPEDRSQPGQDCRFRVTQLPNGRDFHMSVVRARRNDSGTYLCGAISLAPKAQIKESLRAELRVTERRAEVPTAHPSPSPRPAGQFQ

Kd [nM] | Binder
1.6 | B1

biological target: T2, human PD-1-His; assay: Octet (BLI), AHC capture of the bivalent mAb, PD-1 in solution
Excerpt: (§1) In particular, anti-human IgG-Fc (AHC) biosensors were used to capture the test articles and dipped into multiple concentrations of PD-1.

koff [s⁻¹] | kon [M⁻¹ s⁻¹] | Binder
0.00482 | 107000 | B2
0.00416 | 59400 | B3
0.0029 | 105000 | B4
0.00489 | 197000 | B5
0.0013 | 66500 | B6
0.00436 | 123000 | B7
0.00218 | 193000 | B8
0.00477 | 136000 | B9
0.00557 | 140000 | B10
0.023 | 143000 | B11
0.0061 | 166000 | B12
0.00565 | 114000 | B13

biological target: T2, human PD-1-His; assay: Octet (BLI), AHC biosensors capture the bivalent mAb, dipped into multiple concentrations of PD-1; KDapp per legend
Excerpt: as §1

Kd [nM] | Binder
44.9 | B2
70 | B3
27.6 | B4
24.8 | B5
19.6 | B6
35.4 | B7
11.4 | B8
35.1 | B9
39.9 | B10
161 | B11
36.7 | B12
49.4 | B13

Biological target: T1, cynomolgus PD-1-His
Assay: Octet (BLI); antibody captured on anti-human Fc (AHC) biosensors and dipped into multiple concentrations of cynomolgus PD-1-His

Kd [nM] | Binder
42 | B14
35.8 | B15

biological target: T2, human PD-1-His; assay: Octet (BLI), bivalent IgG1 mAb

koff [s⁻¹] | kon [M⁻¹ s⁻¹] | Binder
0.00022 | 138000 | B1

Reference: patent US20240294593A1 (Genentech, published 2024)
